The record followed here is patent US20160137965A1.

The target of assay [1] is α6β1 integrin (UniProt P23229). Kind of assay: solid-phase binding assay: plate coated with 0.5 µg/cm^2 521E8, not dried, 10 nM α6β1 integrin.
Assay [2] has as its target α6β1 integrin (UniProt P23229). Kind of assay: solid-phase binding assay: plate coated with 1.0 µg/cm^2 521E8, not dried, 10 nM α6β1 integrin.
The target of assay [3] is α6β1 integrin (UniProt P23229). Kind of assay: solid-phase binding assay: plate coated with 0.5 µg/cm^2 511E8, not dried, 10 nM α6β1 integrin.
Assay [4] concerns the target α6β1 integrin (UniProt P23229). Kind of assay: solid-phase binding assay: plate coated with 1.0 µg/cm^2 511E8, not dried, 10 nM α6β1 integrin.
Assay [5] deals with α6β1 integrin (UniProt P23229). Kind of assay: solid-phase binding assay: plate coated with 0.4 µg/cm^2 511E8, not dried, 10 nM α6β1 integrin.
Assay [6] addresses α6β1 integrin (UniProt P23229). Kind of assay: solid-phase binding assay: plate coated with 0.75 µg/cm^2 511E8, dried 1 h at room temperature, 10 nM α6β1 integrin, absorbance at 490 nm.
Assay [7] has as its target α6β1 integrin (UniProt P23229). Kind of assay: solid-phase binding assay: plate coated with 0.25 µg/cm^2 511E8 with 167 µg/mL gelatin, dried 1 h, 10 nM α6β1 integrin, absorbance at 490 nm.
Assay [8] has as its target α6β1 integrin (UniProt P23229). Kind of assay: solid-phase binding assay: plate coated with 0.25 µg/cm^2 511E8 with 500 µg/mL gelatin, dried 1 h, 10 nM α6β1 integrin, absorbance at 490 nm.
Assay [9] concerns the target α6β1 integrin (UniProt P23229). Kind of assay: solid-phase binding assay: plate coated with 0.4 µg/cm^2 511E8 with 0.8 µg/cm^2 211E8, dried 24 h, 10 nM α6β1 integrin, absorbance at 490 nm.
The target of assay [10] is α6β1 integrin (UniProt P23229). Kind of assay: solid-phase binding assay: plate coated with 0.4 µg/cm^2 511E8 with 1.6 µg/cm^2 211E8, dried 24 h, 10 nM α6β1 integrin, absorbance at 490 nm.
Assay [11] deals with α6β1 integrin (UniProt P23229). Kind of assay: solid-phase binding assay: plate coated with 0.5 µg/cm^2 511E8 alone, dried 24 h, stored 1 week at 4°C, 10 nM α6β1 integrin, absorbance at 490 nm.
The target in assay [12] is α6β1 integrin (UniProt P23229). Kind of assay: solid-phase binding assay: plate coated with 0.5 µg/cm^2 511E8 with 0.1% BSA, dried 24 h, stored 1 week at 4°C, 10 nM α6β1 integrin, absorbance at 490 nm.
For assay [13], the target named is α6β1 integrin (UniProt P23229). Kind of assay: solid-phase binding assay: plate coated with 0.5 µg/cm^2 511E8 with 0.05% gelatin, dried 24 h, stored 1 week at 4°C, 10 nM α6β1 integrin, absorbance at 490 nm.
Assay [14] addresses α6β1 integrin (UniProt P23229). Kind of assay: solid-phase binding assay: plate coated with 0.5 µg/cm^2 511E8 with 20% glucose (or some other candidates), dried 24 h, stored 1 week at 4°C, 10 nM α6β1 integrin, absorbance at 490 nm.

Sequence of UniProt P23229 (P23229 other isoform, or with tags, fused parts or gaps limits assumed, chain 1 of 2): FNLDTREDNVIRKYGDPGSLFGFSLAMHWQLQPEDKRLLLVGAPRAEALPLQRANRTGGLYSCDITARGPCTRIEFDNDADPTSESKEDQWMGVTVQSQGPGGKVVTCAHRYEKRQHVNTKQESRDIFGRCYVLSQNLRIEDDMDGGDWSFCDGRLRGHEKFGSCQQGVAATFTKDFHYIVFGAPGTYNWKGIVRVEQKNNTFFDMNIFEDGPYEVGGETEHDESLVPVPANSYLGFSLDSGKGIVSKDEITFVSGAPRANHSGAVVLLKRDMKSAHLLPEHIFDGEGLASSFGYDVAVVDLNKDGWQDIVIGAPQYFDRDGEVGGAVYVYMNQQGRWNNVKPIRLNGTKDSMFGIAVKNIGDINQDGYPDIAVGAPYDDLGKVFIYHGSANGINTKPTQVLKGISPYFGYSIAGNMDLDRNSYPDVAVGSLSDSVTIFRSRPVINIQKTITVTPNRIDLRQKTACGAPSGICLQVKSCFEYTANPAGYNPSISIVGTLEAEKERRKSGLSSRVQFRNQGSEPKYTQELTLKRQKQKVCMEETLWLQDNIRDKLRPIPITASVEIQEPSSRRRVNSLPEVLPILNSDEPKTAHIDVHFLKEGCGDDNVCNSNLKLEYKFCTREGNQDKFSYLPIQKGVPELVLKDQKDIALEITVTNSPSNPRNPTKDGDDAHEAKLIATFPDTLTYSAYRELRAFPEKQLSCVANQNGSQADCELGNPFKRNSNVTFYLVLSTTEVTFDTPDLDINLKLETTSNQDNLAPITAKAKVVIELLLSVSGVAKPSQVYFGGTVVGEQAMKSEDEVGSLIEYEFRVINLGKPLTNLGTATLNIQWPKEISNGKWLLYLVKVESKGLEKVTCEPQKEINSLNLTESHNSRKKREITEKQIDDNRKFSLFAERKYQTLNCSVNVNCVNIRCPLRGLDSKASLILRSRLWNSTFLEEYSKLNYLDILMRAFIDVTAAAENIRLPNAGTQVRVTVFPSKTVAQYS
Sequence of UniProt P23229 (P05556 21-728 limits assumed, chain 2 of 2, further chain): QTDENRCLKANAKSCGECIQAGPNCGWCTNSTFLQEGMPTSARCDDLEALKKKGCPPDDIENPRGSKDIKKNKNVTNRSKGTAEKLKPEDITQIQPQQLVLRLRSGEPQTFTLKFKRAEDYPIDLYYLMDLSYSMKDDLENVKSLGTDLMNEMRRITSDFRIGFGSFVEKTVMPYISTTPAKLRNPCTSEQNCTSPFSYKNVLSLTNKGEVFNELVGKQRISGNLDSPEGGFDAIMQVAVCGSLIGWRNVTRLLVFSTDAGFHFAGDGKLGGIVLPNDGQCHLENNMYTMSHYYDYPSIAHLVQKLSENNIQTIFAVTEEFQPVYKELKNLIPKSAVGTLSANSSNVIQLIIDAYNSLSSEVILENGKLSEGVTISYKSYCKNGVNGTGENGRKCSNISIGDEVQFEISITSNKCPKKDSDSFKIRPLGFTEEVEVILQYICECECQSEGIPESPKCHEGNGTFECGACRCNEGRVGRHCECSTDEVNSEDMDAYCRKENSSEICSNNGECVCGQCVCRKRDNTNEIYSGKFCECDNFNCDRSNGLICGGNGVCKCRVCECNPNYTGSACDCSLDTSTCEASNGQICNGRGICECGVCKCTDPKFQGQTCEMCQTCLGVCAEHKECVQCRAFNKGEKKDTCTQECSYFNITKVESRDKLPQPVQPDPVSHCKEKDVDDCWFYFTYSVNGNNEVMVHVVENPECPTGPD

For the substance “Human recombinant laminin 521E8 (from UniProt O15230 2534-3327; P55268 1573-1798; P11047 1362-1608) (ligand)”, the absorbance at 490 nm (amount of bound α6β1 integrin) (absorbance at 490 nm) with α6β1 integrin [1] is 2.75; with α6β1 integrin [2], 2.83.

Turning to “Human recombinant laminin 511E8 (from UniProt O15230 2534-3327; P07942 1561-1786; P11047 1362-1608) (ligand)”, the absorbance at 490 nm (amount of bound α6β1 integrin) (absorbance at 490 nm) in the assay with α6β1 integrin [3] came to 2.62; with α6β1 integrin [4], 2.96; with α6β1 integrin [5], 1.07. In the assay with α6β1 integrin [6], this substance came in with a decrease of the amount of bound integrin after drying, against the undried control of 30%. Moreover, the integrin binding activity after drying (percent remaining) stood at 40% with α6β1 integrin [7] and 70% in the assay with α6β1 integrin [8]. For the same substance, the integrin binding activity relative to undried 511E8 control was 30% with α6β1 integrin [9] and 80% in the assay with α6β1 integrin [10]. Further, the integrin binding activity relative to undried 511E8 control (100%) with α6β1 integrin [11] was less than 10%; with α6β1 integrin [12], 90%; with α6β1 integrin [13] it was 90%; with α6β1 integrin [14], 40%.
